Assay [1] concerns the target Orai1β-eGFP (UniProt Q96D31). Put plainly: FRET or BRET; confocal FRET in living WT HEK293 cells co-expressing Orai1 variant-eGFP and STIM-mCherry (CMV promoter); resting (control) cells, medium with 1.8 mM Ca2+; whole cell averages. For orientation: Bioluminescence resonance energy transfer reports proximity on the nanometre scale.
For assay [2], the target named is Orai1β-eGFP (UniProt Q96D31). Briefly: FRET or BRET; confocal FRET in living WT HEK293 cells co-expressing Orai1 variant-eGFP and STIM-mCherry (CMV promoter); stimulated with 2 µM thapsigargin for 1 min, 1.8 mM extracellular Ca2+; whole cell averages.

UniProt Q96D31, sequence (Q96D31 whole entry): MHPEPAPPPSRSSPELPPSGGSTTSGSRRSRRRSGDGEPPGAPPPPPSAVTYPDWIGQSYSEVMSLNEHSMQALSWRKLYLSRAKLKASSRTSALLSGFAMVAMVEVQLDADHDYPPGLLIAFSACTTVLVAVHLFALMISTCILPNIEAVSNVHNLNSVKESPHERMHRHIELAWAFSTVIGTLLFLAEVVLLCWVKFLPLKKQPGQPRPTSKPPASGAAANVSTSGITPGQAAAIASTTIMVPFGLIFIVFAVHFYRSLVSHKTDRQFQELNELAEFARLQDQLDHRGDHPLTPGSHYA

In turn, “STIM2-mCherry (from UniProt Q9P246 15-746) (natural protein)” had a mean nFRET (resting cells) in the assay with Orai1β-eGFP [1] of 0.074. This substance also displayed a mean nFRET (2 µM TG, 1 min) in the assay with Orai1β-eGFP [2] of 0.114.

(Values after article PMC11730744.)
